Reference: the supplement of paper PMC9112550, “Optimization of the antimicrobial peptide Bac7 by deep mutational scanning” (BMC Biology, 2022)

tested on: Escherichia coli TOP10; experiment: shrunken log2 fold change of peptide-encoding DNA abundance (4.5 h post-induction vs induction); higher = less antimicrobial activity (less host growth inhibition); settings: time post-induction: 4.5 h; library: site-saturation at positions 5, 18, 19, 20
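Further: peptides expressed intracellularly from a pBAD plasmid library in pooled LB shake-flask culture, induced with 0.3% L-arabinose, DNA abundance read by NGS, three biological replicates, DESeq2 with apeglm shrinkage.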

| Sequence | shrunken log2 fold change |
| --- | --- |
| RRIRFRPPRLPRPRPRPGLDPRP | -0.0186 |
| RRIRRRPPRLPRPRPRPYFHPRP | -0.387 |
| RRIRFRPPRLPRPRPRPPIQPRP | 0.0333 |
| RRIRGRPPRLPRPRPRPEFPPRP | 0.482 |
| RRIRTRPPRLPRPRPRPWTSPRP | 0.0106 |
| RRIRYRPPRLPRPRPRPGTGPRP | 0.147 |
| RRIRVRPPRLPRPRPRPTQVPRP | 0.103 |
| RRIRGRPPRLPRPRPRPHMMPRP | -0.0708 |
| RRIRTRPPRLPRPRPRPIACPRP | -0.0974 |
| RRIRYRPPRLPRPRPRPIRAPRP | 0.0501 |
| RRIRSRPPRLPRPRPRPSFYPRP | -0.684 |
| RRIRRRPPRLPRPRPRPPFNPRP | 0.333 |
| RRIRIRPPRLPRPRPRPAWGPRP | 0.0665 |
| RRIRTRPPRLPRPRPRPVVLPRP | -0.149 |
| RRIRQRPPRLPRPRPRPLPWPRP | 0.117 |
| RRIRTRPPRLPRPRPRPKIQPRP | -0.0936 |
| RRIRERPPRLPRPRPRPCRDPRP | 0.0284 |
| RRIRTRPPRLPRPRPRPHGEPRP | 0.16 |
| RRIRQRPPRLPRPRPRPTFQPRP | 0.00826 |
| RRIRQRPPRLPRPRPRPPHSPRP | 0.511 |
| RRIRIRPPRLPRPRPRPAPAPRP | 0.31 |
| RRIRQRPPRLPRPRPRPSMGPRP | -0.163 |
| RRIRFRPPRLPRPRPRPSKHPRP | 0.0257 |
| RRIRGRPPRLPRPRPRPDCTPRP | 0.615 |
| RRIRIRPPRLPRPRPRPPWIPRP | -0.173 |

| Sequence | shrunken log2 fold change |
| --- | --- |
| RRIRSRPPRLPRPRPRPDFKPRP | -0.0946 |
| RRIRFRPPRLPRPRPRPNMDPRP | 1.48 |
| RRIRLRPPRLPRPRPRPMDQPRP | -0.0503 |
| RRIRCRPPRLPRPRPRPRITPRP | -0.212 |
| RRIRSRPPRLPRPRPRPLMHPRP | -0.142 |
| RRIRLRPPRLPRPRPRPQALPRP | -0.042 |
| RRIRDRPPRLPRPRPRPAGMPRP | 0.411 |
| RRIRRRPPRLPRPRPRPHFTPRP | -0.0671 |
| RRIRLRPPRLPRPRPRPCSFPRP | -0.051 |
| RRIRLRPPRLPRPRPRPAHPPRP | 0.522 |
| RRIRCRPPRLPRPRPRPDNPPRP | -0.137 |
| RRIRPRPPRLPRPRPRPHYQPRP | -0.417 |
| RRIRARPPRLPRPRPRPYKTPRP | -0.0275 |
| RRIRDRPPRLPRPRPRPNTPPRP | -0.0665 |
| RRIRSRPPRLPRPRPRPCTAPRP | -0.231 |
| RRIRERPPRLPRPRPRPMDFPRP | -0.0298 |
| RRIRARPPRLPRPRPRPRFQPRP | 0.466 |
| RRIRIRPPRLPRPRPRPDAAPRP | 0.432 |
| RRIRKRPPRLPRPRPRPSRTPRP | 0.391 |
| RRIRRRPPRLPRPRPRPWDWPRP | 0.428 |
| RRIRNRPPRLPRPRPRPQATPRP | 0.991 |
| RRIRHRPPRLPRPRPRPLHTPRP | 0.143 |
| RRIRDRPPRLPRPRPRPPDAPRP | 0.65 |
| RRIRNRPPRLPRPRPRPGCWPRP | 0.55 |
| RRIRCRPPRLPRPRPRPYMVPRP | -0.462 |

| Sequence | shrunken log2 fold change |
| --- | --- |
| RRIRQRPPRLPRPRPRPKQLPRP | -0.156 |
| RRIRVRPPRLPRPRPRPSKSPRP | -0.172 |
| RRIRCRPPRLPRPRPRPCQEPRP | -0.108 |
| RRIRLRPPRLPRPRPRPNWEPRP | -0.111 |
| RRIRRRPPRLPRPRPRPFFYPRP | 0.0607 |
| RRIRARPPRLPRPRPRPRGYPRP | 0.166 |
| RRIRGRPPRLPRPRPRPVGCPRP | 0.74 |
| RRIRNRPPRLPRPRPRPFHNPRP | -0.12 |
| RRIRCRPPRLPRPRPRPDEEPRP | 0.123 |
| RRIRLRPPRLPRPRPRPIAMPRP | -0.0743 |
| RRIRFRPPRLPRPRPRPHGPPRP | 0.11 |
| RRIRHRPPRLPRPRPRPHHAPRP | -0.0366 |
| RRIRVRPPRLPRPRPRPAELPRP | 0.175 |
| RRIRSRPPRLPRPRPRPQQPPRP | -0.273 |
| RRIRDRPPRLPRPRPRPFCSPRP | 0.217 |
| RRIRSRPPRLPRPRPRPNENPRP | -0.118 |
| RRIRERPPRLPRPRPRPAQIPRP | -0.0282 |
| RRIRLRPPRLPRPRPRPGMVPRP | -0.0517 |
| RRIRIRPPRLPRPRPRPPYTPRP | -0.822 |
| RRIRFRPPRLPRPRPRPMKIPRP | 0.25 |
| RRIRQRPPRLPRPRPRPREYPRP | -0.0403 |
| RRIRHRPPRLPRPRPRPVLTPRP | -0.107 |
| RRIRERPPRLPRPRPRPNYQPRP | -0.812 |
| RRIRDRPPRLPRPRPRPSDCPRP | -0.482 |
| RRIRYRPPRLPRPRPRPAAPPRP | 0.726 |

| Sequence | shrunken log2 fold change |
| --- | --- |
| RRIRFRPPRLPRPRPRPFVHPRP | -0.728 |
| RRIRERPPRLPRPRPRPVMNPRP | -0.0808 |
| RRIRWRPPRLPRPRPRPMQRPRP | 0.667 |
| RRIRSRPPRLPRPRPRPQLVPRP | 0.0331 |
| RRIRMRPPRLPRPRPRPGDNPRP | -0.00193 |
| RRIRARPPRLPRPRPRPIVSPRP | 0.0293 |
| RRIRLRPPRLPRPRPRPLNNPRP | -0.593 |
| RRIRERPPRLPRPRPRPYGVPRP | -0.128 |
| RRIRYRPPRLPRPRPRPGMNPRP | -0.227 |
| RRIRGRPPRLPRPRPRPYGVPRP | -0.128 |
| RRIRSRPPRLPRPRPRPSGSPRP | -0.151 |
| RRIRYRPPRLPRPRPRPITNPRP | -0.544 |
| RRIRIRPPRLPRPRPRPEYKPRP | -0.978 |
| RRIRARPPRLPRPRPRPAATPRP | 0.914 |
| RRIRKRPPRLPRPRPRPNVHPRP | 0.273 |
| RRIRYRPPRLPRPRPRPKISPRP | -0.134 |
| RRIRQRPPRLPRPRPRPETLPRP | -0.0597 |
| RRIRDRPPRLPRPRPRPDTGPRP | 0.018 |
| RRIRIRPPRLPRPRPRPQYRPRP | -0.0599 |
| RRIRSRPPRLPRPRPRPCIMPRP | -0.105 |
| RRIRIRPPRLPRPRPRPRRMPRP | -0.12 |
| RRIRWRPPRLPRPRPRPNYKPRP | -0.552 |
| RRIRHRPPRLPRPRPRPTTRPRP | 0.383 |
| RRIRLRPPRLPRPRPRPMRLPRP | 0.0402 |
| RRIRQRPPRLPRPRPRPRVFPRP | -0.0984 |

| Sequence | shrunken log2 fold change |
| --- | --- |
| RRIRHRPPRLPRPRPRPHMKPRP | 0.181 |
| RRIRVRPPRLPRPRPRPVSWPRP | 0.469 |
| RRIRVRPPRLPRPRPRPKDHPRP | -0.308 |
| RRIRQRPPRLPRPRPRPDGAPRP | 0.0271 |
| RRIRRRPPRLPRPRPRPMNNPRP | -0.137 |
| RRIRQRPPRLPRPRPRPVEHPRP | -0.00992 |
| RRIRYRPPRLPRPRPRPGVYPRP | -0.0135 |
| RRIRNRPPRLPRPRPRPAWHPRP | 0.259 |
| RRIRCRPPRLPRPRPRPQMWPRP | 0.0606 |
| RRIRLRPPRLPRPRPRPCCIPRP | -0.0547 |
| RRIRARPPRLPRPRPRPGRGPRP | 0.486 |
| RRIRFRPPRLPRPRPRPGEYPRP | -0.114 |
| RRIRDRPPRLPRPRPRPACDPRP | 0.472 |
| RRIRCRPPRLPRPRPRPIFQPRP | -0.0452 |
| RRIRERPPRLPRPRPRPRRFPRP | 0.158 |
| RRIRKRPPRLPRPRPRPRTSPRP | 0.525 |
| RRIRWRPPRLPRPRPRPNYSPRP | -0.15 |
| RRIRERPPRLPRPRPRPHCKPRP | -1.07 |
| RRIRLRPPRLPRPRPRPLDSPRP | 0.0522 |
| RRIRFRPPRLPRPRPRPKHSPRP | -0.434 |
| RRIRERPPRLPRPRPRPLWTPRP | 0.0667 |
| RRIRRRPPRLPRPRPRPIIWPRP | -0.0862 |
| RRIRPRPPRLPRPRPRPTKYPRP | -0.344 |
| RRIRTRPPRLPRPRPRPLKMPRP | -0.0458 |
| RRIRIRPPRLPRPRPRPLRRPRP | 0.0866 |

| Sequence | shrunken log2 fold change |
| --- | --- |
| RRIRWRPPRLPRPRPRPMPPPRP | 0.411 |
| RRIRLRPPRLPRPRPRPATAPRP | 0.214 |
| RRIRWRPPRLPRPRPRPSVAPRP | 0.491 |
| RRIRMRPPRLPRPRPRPHYCPRP | -0.116 |
| RRIRSRPPRLPRPRPRPAVKPRP | -0.177 |
| RRIRMRPPRLPRPRPRPSVIPRP | -0.244 |
| RRIRNRPPRLPRPRPRPQVWPRP | 0.0895 |
| RRIRVRPPRLPRPRPRPNSQPRP | -0.131 |
| RRIRWRPPRLPRPRPRPHPMPRP | 0.408 |
| RRIRWRPPRLPRPRPRPIGCPRP | 0.268 |
| RRIRRRPPRLPRPRPRPCMLPRP | -0.151 |
| RRIRARPPRLPRPRPRPDFQPRP | 0.149 |
| RRIRIRPPRLPRPRPRPATAPRP | 0.0897 |
| RRIRARPPRLPRPRPRPCIWPRP | 0.118 |
| RRIRERPPRLPRPRPRPEHEPRP | -0.0139 |
| RRIRTRPPRLPRPRPRPPQWPRP | 0.274 |
| RRIRQRPPRLPRPRPRPCLFPRP | -0.268 |
| RRIRMRPPRLPRPRPRPMNVPRP | -0.147 |
| RRIRERPPRLPRPRPRPADSPRP | -0.157 |
| RRIRSRPPRLPRPRPRPSKFPRP | -0.779 |
| RRIRHRPPRLPRPRPRPQNAPRP | -0.135 |
| RRIRTRPPRLPRPRPRPTEVPRP | -0.199 |
| RRIRPRPPRLPRPRPRPKECPRP | 0.241 |
| RRIRARPPRLPRPRPRPNPMPRP | 0.287 |
| RRIRCRPPRLPRPRPRPFNSPRP | 0.101 |
